Measurements published in the nanobody polyreactivity screen of Harvey et al. (2022).

Assay: yeast display, Sf9 membrane polyspecificity reagent, FACS + sequencing; frameworks hold sequencing errors
In short: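 Polyreactivity labels are assigned by the sorting gate from which each nanobody was recovered. The gates were low and high (top ~1%), set on anti-HA fluorescence for expression and streptavidin fluorescence for reagent binding. Before sorting, galactose-induced (36–48 hours) yeast display cells were stained for 1 hour at 4 °C with 10% biotinylated, detergent-solubilized Sf9 membrane reagent.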

| Sequence | polyreactivity (PSR sort gate) |
| --- | --- |
| QFQLVESGGGLVQAGGSLRLTCAASGSIFLWYAMGWYRQAPGKERELVAVITSSGGTTYYADSVKGRFTISRDNAKNTVYLQMNCLKPADTAVYYCAADFYRHPPGSLTKLYYYWGQGTQVTVSS | low polyreactivity |
| QFQLVESGGGLVQAGGTLRLSCPATGLIFAYNTMGWYRHAPGKERELVAGITSGGSTYYADSVKGRFTISRDNAKNTVYLHLNSLKPEDSAVYYCAAAYRNWSVSFGYWGQGTQVTVSS | high polyreactivity |
| QFQLVESGGGLVQAGVSLRLSCAASGRIFSHYAMGWYRQAPGKERELVAASSSGGITYYADSVKGRFTISLDNAKNTVYLQMNCQKPEDTAVYYCAAVRRRGTTYDYWGQGTQVTVSS | high polyreactivity |
| QFQLVESGGGLVQAVGSLRLSCAASGITFYTYAMGWYRHAPGKESDFVSAITRSGGSTYYADSVKGRFTFSRDNAKNTVYLQMIILKPEDTAVYYCAVDIYFWSYGWWGPYDYWGQGTQVTVSS | low polyreactivity |
| QFQLVESGGGLVQEGGSLRLSCASSGRTFVSNAMGWYRQAPGKERELVAAISRRSGSTYYADSVKGRFTISRDNAKNTVYLQMNSLKPEDTAVYYCGAVLTRYGYDYWGQGTQVTVSS | high polyreactivity |
| QFQLVESGGGSVQAGGSLRLSCAASGSTFDYNMGWYRQAPGKERELVATIRSDGRTNYADSVKGRFTISRDNAKNTVYLQMNSLKPEDTAVYYCAADVYAYVDDFGGYDYWGQGTQVTVSS | low polyreactivity |
| QFQLVESGGGVVQAGGRLRLSCAASGSNFPRYAMGWYIQAPGKERELVAAISSSGGDTYYADSVKGLYTISRDNAKNTVYLQMNSLKPEDTAVYYCAALGAFPSLEFDYCGQGTQVTVSS | low polyreactivity |
| QFQLVESGRGLVQAGGSLRLSCAASGRTFSAYAIGWNSQAPVKQRELVAAITRGGSTNYADSVKGRFTISRDNAMNTLYLQMNRLKPEDTAVYYCAARRSSRKDFGYWGQGTQVTVSS | high polyreactivity |
| QFQLVESGRGLVQAGVSLRLSCASSGFTFILYAIGCYRQATGKERELVAGISNGGSTYYADSVKGRFTISRDNAKNTVYFQMNSLKPEDTAVDYCNRDLTFYLYVSGNYFGQGTQVTVSS | low polyreactivity |
| QFQLVESGRGLVQAVGSHRLRCAASGSILLKYAMGWYRQATGKEMELVAAITYRGASTHYADSVKGRFTISRDNAKNTVYLQMNSLKPEDTAVYYCAARGWVYYASEMDYWGQGTQVTVSS | low polyreactivity |
| QFQLVESRGGLVQAGGSLRLNCASSGSIFYSYAIGWYRQAPGKERELVAAITRGGSTYYADSVKGRFTISRDNAKNTVYLQMNSLKREDTAVYYCAAEFYSYKYPDYDYWGQGTQVTVSS | low polyreactivity |
| QFQLVESVGGLVQAGGSLRISCAASGIIFYSYALGWYREAPGKERELVATISFSGDNTYYADSVKGRFTISRDNAKNTVYLQMNSLKPEDTAVYYCAKDLGYRGRYNYWGQGTQVTVSS | low polyreactivity |
| QFQLVESVGGLVQAGGSLRLSCAASGFTFTAYAMGWYRQAPGTERELVAAISSGGSTYYADSVKGRFTISRDNAKNTVYLQMNSLKPEDTAVYYCAAVGVYTVKREYWGQGTQVTVSS | low polyreactivity |
| QFQLVESVGGLVQAGGSLRLSCAASGITFPANAMGWYRQAPGKERELVAAISSSGGSTYYADSVKGRFTISRDNAKNTVYLQMNSLKPEDTAVYYCAAYYGPSRSLYYYWGQGTQVTVSS | high polyreactivity |
| QFQLVESVGGLVQAGGSLRLSCAASGRTFGNYAMGWYRQAPGKERELVAAISRSGGSTSYADSVKGRFTISRDNAKNTVYLQMNSLKPVDTAVYYCNAYFRGPRDYQYDYWGQGTQVTVSS | high polyreactivity |
| QFQQVESGGGLVQAGGSLRLSCAATGSIFSYTMGWYRQAPGKERELVAAITSGGITYYADSVKGRFTISRDNAKNTVYLQMNSLKPEDSAVYYCNAYYPYGLASFYYWGQGTQVTVSS | low polyreactivity |
| QFQRVESGGGLVQAGGSLRLTCAASGIIFVYNAMGWFRQATGKERELVAAINWRGDGTYYADSVKGRFTISRDNAKNTVYLQMNSLKQEDTAVYYCNAVRFRPNSHYRPVGYDYWGQGTQVTVSS | low polyreactivity |
| QGHLEESGGGLVQAGGSLRISCAASGRILPYYVMGGYRPAPGKERELVATIYWSGGSTYYADSVKGRFTISRDNAKNNVNLQINSLKPEDTAVYYSNAAPSDDYDYWGQGTQVTVSS | low polyreactivity |
| QGHLVESGGGLVQAGGSLRLSCAASGRIIRWNAMGWYRQGPGKERELFAGISGSGGSTYYADSVKGRFTISRDNAKNSVYLQMNSLKPEDTAVYYCNADADSSTYVGILQRLDYWGQGTQVTVSS | low polyreactivity |
| QGKLVESGGGLVQAGGSLRLSCAASGLTFGSNTMGGYRQAPGKERELVAAITSNGGSTYYADSVKGRFTISRDNAKNTVYVQMNSLKPEDTAVYYCAARSYDGYYRYYYWGQGTQVTVSS | low polyreactivity |
| QGQIVESGGGLVQAGGSLRLSCAASGFTFRRYAMGWYRQAPGKEREVVAGITSSGGSTYYADSVKGRFTSSRDKAKNPVYLQMNSLKPEDTAVYYCAAEWVYTSFDYWGQGTQVSVSS | high polyreactivity |
| QGQLGESGGGLVQAGGSLRLSCAASGSNFSSNAMGWYRQAPWKERELVAAISSGGSTNYADSVKGRFTISRDNAKNTVYLQMNSLKPEDTAVYYCAADTSTGVYTPYAFEFDWGQGTQVTVSS | low polyreactivity |

| Sequence | polyreactivity (PSR sort gate) |
| --- | --- |
| QGQLVDSGGGVVQAGGSLRLSCAASGRTFPVYAMGWYRQAPGKERELVAAISSRGGSTYYADSVKGRFTISRDNAKNTVYLQMNSLKPEDTAVYYCAARMPGPRRFTMDYWGQGTQVTVSS | high polyreactivity |
| QGQLVDSGGGVVQAGGSLRLSSAASGRSFGRNVMGWYRPAPGKERELVAAIRYSSGGTYYADSVKGRFTISRDYAKNTVDLQMNSLKPEDTAVYYCAARFFRGYRGGDWGQGTQVTVSS | high polyreactivity |
| QGQLVESGGALFQAGGSLSLSCAASGRNFKRYAMGRYRQAPGKERELVAAIRTSDGLTYYADSVKGRFTISRDNAENTDYLQMNSLKPEETSVYYCADGYPYYHVYGYGYWGQGTQVTVSS | low polyreactivity |
| QGQLVESGGCLVQEGGSLRLSCAASGRIFLYYTMGWYRQAPGKERELVAAITRSGGSTYYADSVKGRFTISRDNAKNTVYLQMNSLQPVDTAVSYCNRAYVRYVPMNYWGQGTLVTVSS | high polyreactivity |
| QGQLVESGGGLVQAGGRLRLSCAAAGGIFYSNRMGWYRQATGKEREMVAAITGGDITDYADSVKGRFTISRDNAKNTDYLQMNSLKPEDTAVYYCAGESNPPDYGPRFGSWGQGTQVSVSS | low polyreactivity |
| QGQLVESGGGLVQAGGRLRLSCAASGRIFPNNAMGWYRQAPGKERELVAAISRSGGRTYYADSVKGRFTISRDNAKNTVYLQMNSLKPEDTAVYYCAARSWGGYDSRGYWGQGTQVTVSS | high polyreactivity |
| QGQLVESGGGLVQAGGSLRFSCAASGSTFRSYALGGYRQAPGKEWELVAAISGDGSTNYADSVKGRFTISRDNAKNPVYLQMNSLKPEDTAVYYCAKDPGYPAPYYDYYYWGQGTKVTVSS | low polyreactivity |
| QGQLVESGGGLVQAGGSLRLRCAASGRTFYTYAMGWYRQAPGKERELVATITSGGSTYADSVKGRFTISRDNAKNTVYLQMNSLKPEDTAVYYCARGYYKPSVGKSKRVGGNYWGQGTQVTVSS | high polyreactivity |
| QGQLVESGGGLVQAGGSLRLSCAASGFIFRNYAMGWYRQAPGKERELVAAISRGGSTYYADSVKGRFTISRDNAKNTVYLQMNSLKPEDTAVYYCAADASTYYGTQWASYYYWGQGTQVTVSS | high polyreactivity |
| QGQLVESGGGLVQAGGSLRLSCAASGFTFSYYAMGWYRQAPGKERELVAAISRSGGSTYYADSVKGRFTISRDNAKNTVYLQMNSLKPEDTEVYYCAKRIKDRSGEAYVGLYYWGQGTQVTVSS | high polyreactivity |
| QGQLVESGGGLVQAGGSLRLSCAASGFTFTRNTMGWYRQAPGKERELVAAITRGGSTNYADSVKGRFTISRDNAKNTVYLQLNSLKPEDTAVYYCNKGRNVVLVRTADDYWGQGTQVTVSS | low polyreactivity |
| QGQLVESGGGLVQAGGSLRLSCAASGGIFIFYAMGWYRQAPGKERELVAAISNVSSTNYADSVKGRFTISRDNAKNTVYLQMNSLKPEDTAVYYCNAVGVPSEYYSWGQGTQVTVSS | low polyreactivity |
| QGQLVESGGGLVQAGGSLRLSCAASGGTFLWNAMGWYRQAPGKERELVAAIRWSGARTYYADSVKGRFTISRDNAKNTVYLQMNSLKPEDTAVYYCASENYWYWPYNGMYYWGQGTQVTVSS | high polyreactivity |
| QGQLVESGGGLVQAGGSLRLSCAASGLIFTYYDMGWYRQAPGKERELVAAISRRGTSTYYADSVKGRFTISRDNAKNTVYFQMNSLKPEDTEVYYCAADYYYFDSQQGMDYWGQGTQVTVSS | high polyreactivity |
| QGQLVESGGGLVQAGGSLRLSCAASGLTFGYYDMGWYRQAPGKERELVAAITVRGGSTYYADSVKGRFTISRDNAKNTVYLQINSLKPEDTAVYYFNKRLFWSRHYYYWGQGTQVTVSS | high polyreactivity |
| QGQLVESGGGLVQAGGSLRLSCAASGLTFSPNAMGWYRQEPGKERELVAAISSSGGRTNYADSVKGRFTISRDNAKNPVYLLMNSLKPEDTAVYYCFTNSFYEDDDWGQGTQVTVSS | high polyreactivity |
| QGQLVESGGGLVQAGGSLRLSCAASGRIFNRNAMGWYRQAPGKERELVAAITRGGRTNYADSVKGRFTISRDNAQNTVYLQMNSLKPEDTAVYYCAAAYYGSHGRYDYWGQGTQVTVSS | high polyreactivity |
| QGQLVESGGGLVQAGGSLRLSCAASGRIFSYNTMGWSRQAPGKERELVAAISTSGGSPYYADSVKGRFTISRDNAKNTVYLQMNSLTPEDTAVYYCNTVWTFRTSSNYDFWGQGTQVTVSS | low polyreactivity |
| QGQLVESGGGLVQAGGSLRLSCAASGRIFTRYALGWYRQAPGNEREFVARSTGSGGRTYYADSVKGRFSISRDNAKNTVYLQMNSLKPEDTAVYYCNARRPSWHSYDYGYADYYWGQGTQVTVSS | high polyreactivity |
| QGQLVESGGGLVQAGGSLRLSCAASGRIFVKNAMGWYRQAPGKERELVAAINWRGTSTYYADSVKGRFTISRDNAKNTVYLQMNSLKPEDTAVYYCNRVLGYPYGVDYWGQGTQVTVSS | high polyreactivity |
| QGQLVESGGGLVQAGGSLRLSCAASGRIFYRTAMGWSSQAPGQERELVAVISGSGGRTYYADSVKGRFTIARDNAKNTVYLQMNSLKPEDTAVYYCARRAAYYSYLYSHYPWSYYYWGPGTQVTVSS | high polyreactivity |
